Results published in PMC12576456.

Experiments:
[1] = molecular target: YFT1-C^S927A/S1118A (cYFP fusion) (tomato (Solanum lycopersicum)); test: split reporter (BiFC, NanoBiT); BiFC: nYFP-SlTFT1 with YFT1-C derivatives fused to cYFP, transiently co-transformed into N. benthamiana leaves via Agrobacterium; YFP by confocal microscopy, intensity by ImageJ
[2] = molecular target: YFT1-C^S927D/S1118D (cYFP fusion) (tomato (Solanum lycopersicum)); test: as above

nYFP-SlTFT1 (natural protein)
BiFC YFP fluorescence, percent of YFT1-C [1]: 67%
BiFC YFP fluorescence, percent of YFT1-C [2]: 114%
